Assay results from US20260055180A1.

Target: murine DLL3.HIS (IPA custom, amino acid 25-477) (mouse) (UniProt O88516)
Assay: BLI (Octet), captured on AHC sensor, antigen in solution

Chain of murine DLL3.HIS (IPA custom, amino acid 25-477) (mouse) (O88516 25-477 limits assumed, form in doubt): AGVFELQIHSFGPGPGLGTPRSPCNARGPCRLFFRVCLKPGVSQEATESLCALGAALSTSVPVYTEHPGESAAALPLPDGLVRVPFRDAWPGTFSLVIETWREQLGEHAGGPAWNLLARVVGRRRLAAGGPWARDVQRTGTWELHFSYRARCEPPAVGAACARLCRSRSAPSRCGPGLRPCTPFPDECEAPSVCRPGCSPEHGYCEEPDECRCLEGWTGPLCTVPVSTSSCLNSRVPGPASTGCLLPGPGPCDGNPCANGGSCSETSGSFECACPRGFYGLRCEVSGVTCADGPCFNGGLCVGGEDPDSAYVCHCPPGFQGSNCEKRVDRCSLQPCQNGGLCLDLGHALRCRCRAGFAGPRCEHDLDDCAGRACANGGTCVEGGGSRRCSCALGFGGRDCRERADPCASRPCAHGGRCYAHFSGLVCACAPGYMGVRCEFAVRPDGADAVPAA

B1: DLL3 VHH (Fc fusion, not shown: small tags and cut ends; a dimerising Fc or GST)
chain: EVQLVESGGGEVQPGGSLRLSCAASGSIFSINAMGWYRQAPGKQRELVAGFTGDTNTIYAESVKGRFTISRDNAKNTVYLQMSSLRAEDTAVYYCAADVQLFSRDYEFYWGQGTLVTVKP
koff: 0.000267 s⁻¹ | kon: 215000 M⁻¹ s⁻¹
